Measured values from article PMC3751582.

Target: Drosophila melanogaster cystathionine β-synthase (Drosophila melanogaster)
Experiment: native gel or EMSA

Drosophila melanogaster cystathionine β-synthase (enzyme)
stoichiometry N: 2
